How the values were obtained:
[1] = target: HLA-A*0201 class I monomer on avidin-coated plates (iTopia Epitope Discovery System) (human); test: iTopia affinity assay (FIGS. 27A and 27B)
[2] = target: HLA-A*0201 class I monomer on avidin-coated plates (iTopia Epitope Discovery System) (human); test: iTopia off-rate assay (FIG. 26)

PRAME425-433 S425F L433Nle analog (peptide)
fold reduction of ED50 against the native peptide [1]: > 4 fold

PRAME425-433 analog with Nva at PΩ (peptide)
t1/2 [2]: 17.2 h
